# Substitutions are numbered along the chain they refer to. Names and notes keep the numbering of the source.
# B1: 9° N D141A/E143A/R406P/L408G: 9° N DNA polymerase mutant (protein, UniProt Q56366 1-775, looked up, variant D141A E143A R406P L408G)
# DNA polymerase: MILDTDYITENGKPVIRVFKKENGEFKIEYDRTFEPYFYALLKDDSAIEDVKKVTAKRHGTVVKVKRAEKVQKKFLGRPIEVWKLYFNHPQDVPAIRDRIRAHPAVVDIYEYDIPFAKRYLIDKGLIPMEGDEELTMLAFAIATLYHEGEEFGTGPILMISYADGSEARVITWKKIDLPYVDVVSTEKEMIKRFLRVVREKDPDVLITYNGDNFDFAYLKKRCEELGIKFTLGRDGSEPKIQRMGDRFAVEVKGRIHFDLYPVIRRTINLPTYTLEAVYEAVFGKPKEKVYAEEIAQAWESGEGLERVARYSMEDAKVTYELGREFFPMEAQLSRLIGQSLWDVSRSSTGNLVEWFLLRKAYKRNELAPNKPDERELARRRGGYAGGYVKEPERGLWDNIVYLDFPSGYPSIIITHNVSPDTLNREGCKEYDVAPEVGHKFCKDFPGFIPSLLGDLLEERQKIKRKMKATVDPLEKKLLDYRQRAIKILANSFYGYYGYAKARWYCKECAESVTAWGREYIEMVIRELEEKFGFKVLYADTDGLHATIPGADAETVKKKAKEFLKYINPKLPGLLELEYEGFYVRGFFVTKKKYAVIDEEGKITTRGLEIVRRDWSEIAKETQARVLEAILKHGDVEEAVRIVKEVTEKLSKYEVPPEKLVIHEQITRDLRDYKATGPHVAVAKRLAARGVKIRPGTVISYIVLKGSGRIGDRAIPADEFDPTKHRYDAEYYIENQVLPAVERILKAFGYRKEDLRYQKTKQVGLGAWLKVKGKK
# B2: 9° N D141A/E143A/N491L/Y494S: 9° N DNA polymerase mutant (protein, UniProt Q56366 1-775, looked up, variant D141A E143A N491L Y494S)
# DNA polymerase: B1 DNA polymerase with P406R, G408L, N491L, Y494S
# B3: 9° N D141A/E143A/Y409A/S411T: 9° N DNA polymerase mutant (protein, UniProt Q56366 1-775, looked up, variant D141A E143A Y409A S411T)
# DNA polymerase: B1 DNA polymerase with P406R, G408L, Y409A, S411T
# B4: 9° N D141A/E143A/Y409A/R406H/L408G: 9° N DNA polymerase mutant (protein, UniProt Q56366 1-775, looked up, variant D141A E143A Y409A R406H L408G)
# DNA polymerase: B1 DNA polymerase with P406H, Y409A
# B5: 9° N D141A/E143A/Y409A/R406V/A485L: 9° N DNA polymerase mutant (protein, UniProt Q56366 1-775, looked up, variant D141A E143A Y409A R406V A485L)
# DNA polymerase: B1 DNA polymerase with P406V, G408L, Y409A, A485L
# B6: 9° N D141A/E143A/Y409A/R406S/L408I: 9° N DNA polymerase mutant (protein, UniProt Q56366 1-775, looked up, variant D141A E143A Y409A R406S L408I)
# DNA polymerase: B1 DNA polymerase with P406S, G408I, Y409A
# B7: 9° N D141A/E143A/Y409A/P410R/S411T: 9° N DNA polymerase mutant (protein, UniProt Q56366 1-775, looked up, variant D141A E143A Y409A P410R S411T)
# DNA polymerase: B1 DNA polymerase with P406R, G408L, Y409A, P410R, S411T
# B8: 9° N D141A/E143A/Y409A/R406T/L408R: 9° N DNA polymerase mutant (protein, UniProt Q56366 1-775, looked up, variant D141A E143A Y409A R406T L408R)
# DNA polymerase: B1 DNA polymerase with P406T, G408R, Y409A
# B9: 9° N D141A/E143A/L408S/Y409A/P410V/S411T: 9° N DNA polymerase mutant (protein, UniProt Q56366 1-775, looked up, variant D141A E143A L408S Y409A P410V S411T)
# DNA polymerase: B1 DNA polymerase with P406R, G408S, Y409A, P410V, S411T
# B10: 9° N D141A/E143A/Y409A/R406S/L408K: 9° N DNA polymerase mutant (protein, UniProt Q56366 1-775, looked up, variant D141A E143A Y409A R406S L408K)
# DNA polymerase: B1 DNA polymerase with P406S, G408K, Y409A
# B11: 9° N exo-P410V: 9° N DNA polymerase mutant (protein, UniProt Q56366 1-775, looked up, variant D141A E143A P410V)
# DNA polymerase: B1 DNA polymerase with P406R, G408L, P410V
# B12: 9° N D141A/E143A/Y409A/R406L/L408G: 9° N DNA polymerase mutant (protein, UniProt Q56366 1-775, looked up, variant D141A E143A Y409A R406L L408G)
# DNA polymerase: B1 DNA polymerase with P406L, Y409A
# B13: 9° N D141A/E143A/Y409A/R406Y/L408G: 9° N DNA polymerase mutant (protein, UniProt Q56366 1-775, looked up, variant D141A E143A Y409A R406Y L408G)
# DNA polymerase: B1 DNA polymerase with P406Y, Y409A
# B14: 9° N D141A/E143A/Y409A/R406P/L408C: 9° N DNA polymerase mutant (protein, UniProt Q56366 1-775, looked up, variant D141A E143A Y409A R406P L408C)
# DNA polymerase: B1 DNA polymerase with G408C, Y409A
# B15: 9° N D141A/E143A/L408P/Y409A/P410V/S411T: 9° N DNA polymerase mutant (protein, UniProt Q56366 1-775, looked up, variant D141A E143A L408P Y409A P410V S411T)
# DNA polymerase: B1 DNA polymerase with P406R, G408P, Y409A, P410V, S411T
# B16: 9° N D141A/E143A/Y409A/R406V: 9° N DNA polymerase mutant (protein, UniProt Q56366 1-775, looked up, variant D141A E143A Y409A R406V)
# DNA polymerase: B1 DNA polymerase with P406V, G408L, Y409A
# B17: 9° N D141A/E143A/Y409A/R406T/L408K: 9° N DNA polymerase mutant (protein, UniProt Q56366 1-775, looked up, variant D141A E143A Y409A R406T L408K)
# DNA polymerase: B1 DNA polymerase with P406T, G408K, Y409A
# B18: 9° N D141A/E143A/Y409A/R406S/L408R: 9° N DNA polymerase mutant (protein, UniProt Q56366 1-775, looked up, variant D141A E143A Y409A R406S L408R)
# DNA polymerase: B1 DNA polymerase with P406S, G408R, Y409A
# B19: 9° N D141A/E143A/Y409A/R406V/L408Y: 9° N DNA polymerase mutant (protein, UniProt Q56366 1-775, looked up, variant D141A E143A Y409A R406V L408Y)
# DNA polymerase: B1 DNA polymerase with P406V, G408Y, Y409A
# B20: Mma D153A/E155A/L417S/P419V: Methanococcus maripaludis DNA polymerase mutant (protein)
# chain: MESLIDLDYNSDDLCIYLYLINSIIKEKDFKPYFYVNSTDKEQILEFLKDYEKKHKLDSEISKMIENIETVKKIVFDENYQEKELSKVTVKYPNNVKTVREILMEFERLYEYDIPFVRRYLIDNSVIPTSTWDFENNKKIDNKIPDFKTVSFAIAVYCNKEPNPKKDPIIMASFSSKDFNTVVSTKKFDHEKLEYVKDEKELIKRIIEILKEYDIIYTYNGDNFDFPYLKKRAESFGLELKLGKNDEKIKITKGGMNSKSYIPGRVHIDLYPIARRLLNLTKYRLENVTEALFDVKKVDVGHENIPKMWDNLDETLVEYSHQDAYYTQRIGEQFLPLEIMFSRVVNQSLYDINRMSSSQMVEYLLLKNSYKMGVIAPNRPSGKEYQKRIRSSYEGGYVKEPLKGIHEDIVSMDFLSSYVSIIMSHNLSPETIDCTCCSDEENGENEEILGHKFCKKSIGIIPKTLMDLINRRKKVKKVLREKAEKGEFDEEYQILDYEQRSIKVLANSHYGYLAFPMARWYSRDCAEITTHLGRQYIQKTIEEAENFGFKVIYADTDGFYSKWADDKEKLSKYELLEKTREFLKNINNTLPGEMELEFEGYFKRGIFVTKKKYALIDENEKITVKGLEVVRRDWSNVSKNTQKNVLNALLKEGSVENAKKVIQDTIKELKDGKVNNEDLLIHTQLTKRIEDYKTTAPHVEVAKKILKSGNRVNTGDVISYIITSGNKSISERAEILENAKNYDTNYYIENQILPPVIRLMEALGITKDELKDSKKQYTLHHFLK
# Test system: modified nucleotide
# Test: Screen of DNA polymerase mutants for modified nucleotide incorporation
# Type: biochemical
# Description: In order to determine the extent of 3′-modified nucleotide incorporation by archaeon DNA polymerases, the titration assay described by Gardner and Jack (2002) was used. In this assay, the efficiency of incorporation of chain terminators was judged by the size of the reaction products in a polymerization reaction. As the efficiency of chain-terminator incorporation increased, the average reaction product size decreased because polymerization was more often halted by terminator addition. By comparing the amount of terminator required to give the same spectrum of reaction products, the relative efficiency of incorporation of the test compounds with the different polymerases was determined.
# A complex library of 9° N DNA polymerase mutants was screened for enhanced incorporation of 3′-azido-ddCTP. Several classes of 9° N DNA polymerase mutants were identified with enhanced terminator incorporation. 9° N exo-L408S/Y409A/P410V (Therminator III™, NEB, Inc., Ipswich, Mass.) was purified and characterized in more detail. 9° N DNA polymerase single mutants P410V, L408S, and Y409A and double mutants L408S/P410V, L408S/Y409A, and Y409A/P410V were also purified for comparison. Purification and characterization of DNA polymerase mutants was as described in Gardner and Jack, Nucleic Acids Res. 27:2545-2553 (1999).
# A library of 9° N DNA polymerase mutants was constructed by PCR amplification of the polymerase genes using gene-specific primers or codon optimization and gene synthesis Czar et al. Trends Biotechnol 27(2): 63-72 (2009)). The ability to incorporate 3′-modified nucleotide terminators was evaluated by the titration assay for chain terminator incorporation efficiency as described by Gardner and Jack (2002).
# Furthermore, the same assay was used to measure 3′-amino-ddCTP incorporation by 9° N exo-L408S/Y409A/P410V (FIG. 3) and to measure rates of incorporation (FIG. 4). Examples of mutants that increased modified nucleotide incorporation by at least two-fold were: […]
row,Molecule,increase of modified nucleotide incorporation
1,B1,at least two-fold
2,B2,at least two-fold
3,B3,at least two-fold
4,B4,at least two-fold
5,B5,at least two-fold
6,B6,at least two-fold
7,B7,at least two-fold
8,B8,at least two-fold
9,B9,at least two-fold
10,B10,at least two-fold
11,B11,at least two-fold
12,B12,at least two-fold
13,B13,at least two-fold
14,B14,at least two-fold
15,B15,at least two-fold
16,B16,at least two-fold
17,B17,at least two-fold
18,B18,at least two-fold
19,B19,at least two-fold
20,B20,at least two-fold

# Source: patent publication US20110045489A1, “Polymerases for Incorporating Modified Nucleotides” (NEW ENGLAND BIOLABS, INC., priority 2008, published 2011)
